Experimental findings from paper PMC3542269 are described below.

The test deals with clathrin (human (endogenous in PC-3)) (UniProt Q00610). Put plainly: co-IP; PC-3 lysate (50 mM HEPES pH 5.5, 1 mM EDTA, 150 mM NaCl, 1% Triton X-100); anti-clathrin (1 µg) or anti β-actin (5 µg) antibody overnight at 4°C, Protein A Sepharose; profilin 1 detected by Western blot; cells treated 24 h with 10 µM AMS-36 (cathepsin X inhibitor) or DMSO. For orientation: In western blotting, separated proteins are transferred to a membrane and probed.
Chain of UniProt Q00610 (Q00610 whole entry): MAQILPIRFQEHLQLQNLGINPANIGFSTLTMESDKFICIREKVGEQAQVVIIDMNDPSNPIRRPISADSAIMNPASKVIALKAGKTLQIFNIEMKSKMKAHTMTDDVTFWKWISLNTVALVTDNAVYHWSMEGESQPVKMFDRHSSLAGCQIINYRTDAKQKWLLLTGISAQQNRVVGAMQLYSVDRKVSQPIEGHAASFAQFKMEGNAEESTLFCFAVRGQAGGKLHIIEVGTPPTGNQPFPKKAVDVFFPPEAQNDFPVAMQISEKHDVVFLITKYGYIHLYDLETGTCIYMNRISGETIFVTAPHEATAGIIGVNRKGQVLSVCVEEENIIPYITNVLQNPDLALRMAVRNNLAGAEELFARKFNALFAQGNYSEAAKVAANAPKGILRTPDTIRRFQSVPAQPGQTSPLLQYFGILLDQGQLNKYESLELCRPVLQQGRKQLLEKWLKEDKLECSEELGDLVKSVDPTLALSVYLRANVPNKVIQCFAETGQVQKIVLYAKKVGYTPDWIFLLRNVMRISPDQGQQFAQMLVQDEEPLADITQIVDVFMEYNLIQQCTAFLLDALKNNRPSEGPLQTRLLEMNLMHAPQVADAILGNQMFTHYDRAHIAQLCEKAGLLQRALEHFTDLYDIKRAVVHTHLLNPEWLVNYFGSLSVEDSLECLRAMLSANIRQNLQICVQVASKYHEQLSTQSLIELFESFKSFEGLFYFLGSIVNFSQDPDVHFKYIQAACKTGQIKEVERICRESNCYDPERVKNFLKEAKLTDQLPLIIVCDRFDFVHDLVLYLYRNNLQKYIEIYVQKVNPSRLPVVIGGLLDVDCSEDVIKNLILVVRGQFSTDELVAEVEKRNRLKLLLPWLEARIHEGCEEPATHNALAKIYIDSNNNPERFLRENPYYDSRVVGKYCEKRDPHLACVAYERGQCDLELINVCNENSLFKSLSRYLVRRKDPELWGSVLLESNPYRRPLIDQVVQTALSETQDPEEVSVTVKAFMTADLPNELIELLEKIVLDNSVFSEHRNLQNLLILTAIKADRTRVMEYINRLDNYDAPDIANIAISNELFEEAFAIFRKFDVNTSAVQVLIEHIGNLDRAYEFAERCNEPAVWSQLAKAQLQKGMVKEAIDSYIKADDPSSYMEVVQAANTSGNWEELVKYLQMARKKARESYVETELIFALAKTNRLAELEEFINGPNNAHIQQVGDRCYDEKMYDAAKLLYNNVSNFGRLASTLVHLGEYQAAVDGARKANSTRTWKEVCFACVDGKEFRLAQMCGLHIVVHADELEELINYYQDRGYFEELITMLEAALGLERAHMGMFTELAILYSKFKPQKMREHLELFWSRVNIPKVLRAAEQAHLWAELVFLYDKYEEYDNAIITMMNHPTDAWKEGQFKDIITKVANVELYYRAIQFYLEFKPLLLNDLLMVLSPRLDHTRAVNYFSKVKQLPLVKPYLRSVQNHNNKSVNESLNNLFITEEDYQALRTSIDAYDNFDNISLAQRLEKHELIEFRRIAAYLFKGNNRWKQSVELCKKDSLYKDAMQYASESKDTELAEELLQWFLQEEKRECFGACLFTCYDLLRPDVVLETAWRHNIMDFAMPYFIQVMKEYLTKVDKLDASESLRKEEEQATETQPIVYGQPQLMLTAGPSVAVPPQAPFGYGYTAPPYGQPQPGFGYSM

Chain of profilin 1 (P07737 whole entry): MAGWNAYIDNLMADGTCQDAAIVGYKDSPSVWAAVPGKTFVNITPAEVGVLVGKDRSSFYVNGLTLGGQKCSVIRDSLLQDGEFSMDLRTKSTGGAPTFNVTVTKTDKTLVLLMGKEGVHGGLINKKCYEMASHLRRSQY

With “profilin 1 (from UniProt P07737 1-140) (natural protein)”, the more profilin 1 co-precipitated with clathrin from AMS-36-treated than from DMSO-treated cells stood at 44%.
